# Read-outs that look alike come from different tables or passages of the source.
# B1: VR11 aptamer (ssDNA)
# DNA: TGGTGGATGGCGCAGTCGGCGACAA
# modifications: 5'-NH2 (amine, coupled to PASE on graphene)
# Tests used:
# Assay in all cases: GFET
# [1] = biological target: T1, TNF-alpha (human, UniProt P01375 77-233)
# [2] = biological target: T1, TNF-alpha; remark: listed apart in the source
# [3] = biological target: T1, TNF-alpha; remark: listed apart in the source
# T1 sequence (P01375 77-233): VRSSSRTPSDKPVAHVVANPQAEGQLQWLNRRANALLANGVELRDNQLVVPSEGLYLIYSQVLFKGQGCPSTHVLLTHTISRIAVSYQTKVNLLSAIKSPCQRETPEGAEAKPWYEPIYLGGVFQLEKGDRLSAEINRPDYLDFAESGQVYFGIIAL
binder,measurement,setting,value
B1,Kd,[1],28.4 nM
same,Kd,[2],27.4 nM
same,Kd,[3],28.4 nM

# — PMC7536116
